# Data: patent US20260250404A1 (Genmab, published 2026)
# Numbering of substitutions follows the chain as printed. Names and notes keep the numbering of the source.
# B1: IgG1-b12, anti-HIV gp120 antibody with wild-type IgG1 Fc (antibody)
# heavy: not shown
# light: EIVLTQSPGTLSLSPGERATFSCRSSHSIRSRRVAWYQHKPGQAPRLVIHGVSNRASGISDRFSGSGSGTDFTLTITRVEPEDFALYYCQVYGASSYTFGQGTKLERKRTVAAPSVFIFPPSDEQLKSGTASVVCLLNNFYPREAKVQWKVDNALQSGNSQESVTEQDSKDSTYSLSSTLTLSKADYEKHKVYACEVTHQGLSSPVTKSFNRGEC
# notes: also called WT IgG1-b12; ctrl; copies: 2 + 2
# B2: IgG1-b12-P329R-E345R (antibody)
# VH: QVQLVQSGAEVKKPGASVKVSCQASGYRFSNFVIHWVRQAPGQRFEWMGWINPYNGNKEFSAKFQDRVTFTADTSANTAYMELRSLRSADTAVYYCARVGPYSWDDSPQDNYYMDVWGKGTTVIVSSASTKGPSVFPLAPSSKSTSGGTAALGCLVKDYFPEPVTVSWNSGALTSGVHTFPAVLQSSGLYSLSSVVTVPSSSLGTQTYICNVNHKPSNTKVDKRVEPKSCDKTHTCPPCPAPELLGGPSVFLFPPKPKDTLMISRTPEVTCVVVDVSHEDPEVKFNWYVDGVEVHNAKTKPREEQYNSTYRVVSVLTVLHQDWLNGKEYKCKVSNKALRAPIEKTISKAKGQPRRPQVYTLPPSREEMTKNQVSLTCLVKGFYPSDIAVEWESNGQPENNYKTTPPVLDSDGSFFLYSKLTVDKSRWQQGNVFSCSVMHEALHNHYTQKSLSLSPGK
# VL: B1 light
# notes: also called ctrl; IgG1-b12-E345R-P329R
# B3: IgG1-ctrl-FERR (b12 antigen-binding domains, IgG1m(f)-L234F-L235E-G236R-K409R) (antibody)
# heavy: QVQLVQSGAEVKKPGASVKVSCQASGYRFSNFVIHWVRQAPGQRFEWMGWINPYNGNKEFSAKFQDRVTFTADTSANTAYMELRSLRSADTAVYYCARVGPYSWDDSPQDNYYMDVWGKGTTVIVSSASTKGPSVFPLAPSSKSTSGGTAALGCLVKDYFPEPVTVSWNSGALTSGVHTFPAVLQSSGLYSLSSVVTVPSSSLGTQTYICNVNHKPSNTKVDKRVEPKSCDKTHTCPPCPAPEFERGPSVFLFPPKPKDTLMISRTPEVTCVVVDVSHEDPEVKFNWYVDGVEVHNAKTKPREEQYNSTYRVVSVLTVLHQDWLNGKEYKCKVSNKALPAPIEKTISKAKGQPREPQVYTLPPSREEMTKNQVSLTCLVKGFYPSDIAVEWESNGQPENNYKTTPPVLDSDGSFFLYSRLTVDKSRWQQGNVFSCSVMHEALHNHYTQKSLSLSPG
# light: B1 light
# B4: IgG1-CD27-A carrying F405L-L234F-L235E-D265A in the IgG Fc domain (antibody, V domains shown)
# VH: QVQLMQSGSELKKPGASVKVSCRASGYTFTTYAMNWVRQAPGQGPEWMGWINTNTGNPTYAQGFTGRFVFSLDTTVTTTYLQISSLKAEDTAVYFCAREAGSFDYWGQGTLVTVSS
# VL: QSALTQPASVSGSPGQSITISCTGTSSDVYYYNYVSWYQQHPGRAPKLVIYDVSNRPSGVSNRFSGSKSGNTASLTISGLRAEDEADYYCSSYTVNRVWVFGGGTKLTVL
# B5: IgG1-CD27-A-P329R-E345R-LNLuc (antibody)
# heavy: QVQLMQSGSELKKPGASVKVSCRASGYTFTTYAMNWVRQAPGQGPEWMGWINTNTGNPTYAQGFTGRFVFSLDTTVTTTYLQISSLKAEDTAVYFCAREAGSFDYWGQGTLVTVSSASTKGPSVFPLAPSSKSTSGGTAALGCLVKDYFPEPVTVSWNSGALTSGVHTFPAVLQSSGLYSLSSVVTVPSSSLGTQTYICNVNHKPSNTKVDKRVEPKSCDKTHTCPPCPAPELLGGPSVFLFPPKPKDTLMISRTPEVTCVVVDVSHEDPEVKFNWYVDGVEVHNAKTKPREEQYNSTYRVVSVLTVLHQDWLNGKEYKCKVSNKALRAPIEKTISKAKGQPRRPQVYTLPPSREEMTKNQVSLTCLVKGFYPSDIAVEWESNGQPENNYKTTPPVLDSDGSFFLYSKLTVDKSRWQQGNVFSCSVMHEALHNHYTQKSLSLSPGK
# light: QSALTQPASVSGSPGQSITISCTGTSSDVYYYNYVSWYQQHPGRAPKLVIYDVSNRPSGVSNRFSGSKSGNTASLTISGLRAEDEADYYCSSYTVNRVWVFGGGTKLTVLGQPKAAPSVTLFPPSSEELQANKATLVCLISDFYPGAVTVAWKADSSPVKAGVETTTPSKQSNNKYAASSYLSLTPEQWKSHRSYSCQVTHEGSTVEKTVAPTECSSLGSSGVFTLEDFVGDWRQTAGYNLDQVLEQGGVSSLFQNLGVSVTPIQRIVLSGENGLKIDIHVIIPYEGLSGDQMGQIEKIFKVVYPVDDHHFKVILHYGTLVIDGVTPNMIDYFGRPYEGIAVFDGKKITVTGTLWNGNKIIDERLINPDGSLLFRVTINGVTGWRLCERILA
# What was measured:
# [1] = target: T1, recombinant His-tagged human FcγRIIa, 167-Arg [R] / R131 variant (human, UniProt P12318 34-218, limits assumed); assay: SPR (Biacore), His-tagged FcγR captured on anti-His chip, antibody injected, resonance units after background subtraction
# T1 construct: catalogue numbers differ; also called FcγRIIa-R; FcγRIIa-R131
# T1 sequence (looked up): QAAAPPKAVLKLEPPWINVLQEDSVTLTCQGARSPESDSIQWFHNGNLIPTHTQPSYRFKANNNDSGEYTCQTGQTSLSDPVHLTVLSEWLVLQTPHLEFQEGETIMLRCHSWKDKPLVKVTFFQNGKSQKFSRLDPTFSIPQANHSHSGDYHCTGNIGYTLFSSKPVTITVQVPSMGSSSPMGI
# [2] = target: T2, recombinant His-tagged human FcγRIIIa, 176-Val [V] / V158 variant (human, UniProt P08637 17-208); assay: as above
# T2 construct: also called FcγRIIIa-V; FcγRIIIa-V158
# T2 sequence (P08637 other isoform, or with tags, fused parts or gaps mutant limits assumed): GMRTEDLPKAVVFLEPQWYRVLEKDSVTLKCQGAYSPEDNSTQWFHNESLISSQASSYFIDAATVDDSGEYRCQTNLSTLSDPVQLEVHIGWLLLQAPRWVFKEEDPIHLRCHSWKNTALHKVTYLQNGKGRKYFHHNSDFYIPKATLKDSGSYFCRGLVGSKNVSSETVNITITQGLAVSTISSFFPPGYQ
# [3] = target: T3, recombinant His-tagged human FcγRIIb (human, UniProt P31994 43-217, limits assumed); assay: as above
# T3 sequence (looked up): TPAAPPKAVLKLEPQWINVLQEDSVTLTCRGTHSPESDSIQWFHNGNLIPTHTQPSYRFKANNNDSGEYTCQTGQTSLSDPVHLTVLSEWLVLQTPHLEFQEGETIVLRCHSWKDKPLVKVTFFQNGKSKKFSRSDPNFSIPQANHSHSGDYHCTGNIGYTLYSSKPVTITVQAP
# [4] = target: T4, recombinant His-tagged human FcγRIIIa, 176-Phe [F] / F158 variant (human, UniProt P08637 17-208); assay: as above
# T4 construct: also called FcγRIIIa-F; FcγRIIIa-F158
# T4 sequence (P08637 17-208 limits assumed, change not shown): as the sequence (P08637 other isoform, or with tags, fused parts or gaps mutant limits assumed) above, with V160F counted along it
# [5] = target: recombinant His-tagged human FcγRIa (Sino Biological 10256-H08S-B) (human, UniProt P12314 16-288); assay: as above
# Sequence of recombinant His-tagged human FcγRIa (Sino Biological 10256-H08S-B) (P12314 16-288 limits assumed, stated change not applied): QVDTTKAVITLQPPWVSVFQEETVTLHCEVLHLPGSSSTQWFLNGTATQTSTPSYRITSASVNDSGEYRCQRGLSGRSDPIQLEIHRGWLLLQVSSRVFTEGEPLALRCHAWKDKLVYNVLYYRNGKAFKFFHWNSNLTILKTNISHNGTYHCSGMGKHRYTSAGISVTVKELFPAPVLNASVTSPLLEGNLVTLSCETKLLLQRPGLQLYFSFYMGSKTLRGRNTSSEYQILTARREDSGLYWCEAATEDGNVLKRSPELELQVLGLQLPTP
# [6] = target: T5, recombinant His-tagged human FcγRIIa, 167-His [H] / H131 variant (human, UniProt P12318 34-218, limits assumed); assay: as above
# T5 construct: catalogue numbers differ; also called FcγRIIa-H; FcγRIIa-H131
# T5 sequence (looked up): T1 sequence (looked up) with R134H
# [7] = target: T6, human FcγRIa on the cell surface (transfected CHO-S cells, M0/M1 macrophages, hMDM, FcγRI effector reporter … (human, UniProt P12314 16-374)); assay: flow cytometry on human monocyte-derived M0 macrophages, PE-labeled goat anti-human IgG, GeoMean-PE
# T6 construct: whole, on cells; also called CD64
# T6 sequence (P12314 16-374): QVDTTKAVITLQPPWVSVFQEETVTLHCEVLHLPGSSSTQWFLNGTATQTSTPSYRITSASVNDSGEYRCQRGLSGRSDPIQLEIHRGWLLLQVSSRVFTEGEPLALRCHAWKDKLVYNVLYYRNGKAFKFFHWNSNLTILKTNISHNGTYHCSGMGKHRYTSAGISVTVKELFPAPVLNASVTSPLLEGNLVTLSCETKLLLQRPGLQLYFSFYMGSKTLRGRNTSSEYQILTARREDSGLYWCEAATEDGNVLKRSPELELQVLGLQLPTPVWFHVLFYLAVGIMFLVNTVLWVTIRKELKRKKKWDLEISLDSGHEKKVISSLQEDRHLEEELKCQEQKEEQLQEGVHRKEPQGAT
# [8] = target: T7, human CD27 on the cell surface (T cells, transfected HEK293F cells, Daudi cells, NFκB-luc2/CD27 Jurkat cells) (human, UniProt P26842 20-240); assay: flow cytometry on CD4+ T cells in human healthy donor PBMC, FITC goat anti-human IgG F(ab')2, median FITC
# T7 construct: Full length human CD27, endogenous or transfected; also called TNFRSF7
# [9] = target: cynomolgus monkey PD-1 on transfected CHO-S cells (cynomolgus monkey, UniProt B0LAJ3 25-288); assay: flow cytometry on CHO-S cells transiently transfected with cynomolgus monkey PD-1, gMFI (PE)
# Sequence of cynomolgus monkey PD-1 on transfected CHO-S cells (B0LAJ3 entry or part of it limits assumed): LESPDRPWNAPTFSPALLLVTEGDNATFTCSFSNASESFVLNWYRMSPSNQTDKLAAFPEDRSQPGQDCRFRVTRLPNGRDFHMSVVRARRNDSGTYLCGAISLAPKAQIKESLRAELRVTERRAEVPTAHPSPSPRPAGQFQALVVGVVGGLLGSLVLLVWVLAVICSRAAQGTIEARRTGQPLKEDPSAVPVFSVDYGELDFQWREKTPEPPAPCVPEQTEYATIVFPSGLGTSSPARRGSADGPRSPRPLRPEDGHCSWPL
# [10] = target: T8, mouse PD-1 on transfected CHO-S cells (mouse, UniProt Q02242 25-288); assay: flow cytometry on CHO-S cells transiently transfected with mouse PD-1, gMFI (PE)
# T8 construct: whole, on cells
# T8 sequence (looked up): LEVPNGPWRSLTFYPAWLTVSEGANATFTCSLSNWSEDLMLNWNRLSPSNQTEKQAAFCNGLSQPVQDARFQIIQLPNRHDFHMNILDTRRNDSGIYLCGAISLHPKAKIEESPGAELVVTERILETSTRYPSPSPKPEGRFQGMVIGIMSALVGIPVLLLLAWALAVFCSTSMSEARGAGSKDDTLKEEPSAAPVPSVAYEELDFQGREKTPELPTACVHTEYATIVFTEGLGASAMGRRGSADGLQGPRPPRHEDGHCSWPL
# [11] = target: T9, human PD-1 on the cell surface (transfected CHO-S cells; PD-1 effector reporter Jurkat T cells) (human, UniProt Q15116 25-288); assay: flow cytometry on CHO-S cells transiently transfected with human PD-1, gMFI (PE)
# T9 construct: also called CD279
# T9 sequence (Q15116 25-288 limits assumed): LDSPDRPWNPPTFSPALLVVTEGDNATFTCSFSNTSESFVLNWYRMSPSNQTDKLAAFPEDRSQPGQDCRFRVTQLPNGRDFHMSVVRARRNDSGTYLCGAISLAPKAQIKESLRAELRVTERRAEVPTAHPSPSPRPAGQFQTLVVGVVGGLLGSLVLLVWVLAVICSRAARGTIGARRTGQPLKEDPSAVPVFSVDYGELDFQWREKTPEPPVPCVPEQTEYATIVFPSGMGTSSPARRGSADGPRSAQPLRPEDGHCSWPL
# [12] = target: T6, human FcγRIa on the cell surface …; assay: flow cytometry on CHO-S cells transiently expressing human FcγRIa, % PE+ cells
# [13] = target: T10, rat PD-1 on transfected CHO-S cells (rat, UniProt D3ZIN8 25-287); assay: flow cytometry on CHO-S cells transiently transfected with rat PD-1, gMFI (PE)
# T10 sequence: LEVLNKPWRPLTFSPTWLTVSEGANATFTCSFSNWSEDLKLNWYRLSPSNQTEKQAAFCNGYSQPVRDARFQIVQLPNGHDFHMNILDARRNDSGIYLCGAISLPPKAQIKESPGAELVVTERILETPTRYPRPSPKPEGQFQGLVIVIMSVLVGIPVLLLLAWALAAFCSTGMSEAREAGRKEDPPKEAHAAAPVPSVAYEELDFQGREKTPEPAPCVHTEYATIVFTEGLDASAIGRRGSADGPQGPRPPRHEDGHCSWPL
# [14] = target: human CD27-A59T variant on transfected HEK293F cells (human, UniProt P26842 20-260); assay: flow cytometry on HEK293F cells transfected with human CD27-A59T, PE-labeled goat anti-human IgG, median MFI PE
# [15] = target: T7, human CD27 on the cell surface (T …); assay: flow cytometry on HEK293F cells transfected with human CD27, PE-labeled goat anti-human IgG, median MFI PE
# [16] = target: T7, human CD27 on the cell surface (T …); assay: flow cytometry on T cells in human PBMC (endogenous CD27), PE-labeled goat anti-human IgG, median MFI PE
# [17] = target: T11, cynomolgus monkey CD27 on the cell surface (T cells, transfected HEK293F cells) (cynomolgus monkey, UniProt P26842 20-260 (human entry)); assay: flow cytometry on HEK293F cells transfected with cynomolgus monkey CD27, PE-labeled goat anti-human IgG, median MFI PE
# T11 construct: also called Cyno CD27
# T11 chain: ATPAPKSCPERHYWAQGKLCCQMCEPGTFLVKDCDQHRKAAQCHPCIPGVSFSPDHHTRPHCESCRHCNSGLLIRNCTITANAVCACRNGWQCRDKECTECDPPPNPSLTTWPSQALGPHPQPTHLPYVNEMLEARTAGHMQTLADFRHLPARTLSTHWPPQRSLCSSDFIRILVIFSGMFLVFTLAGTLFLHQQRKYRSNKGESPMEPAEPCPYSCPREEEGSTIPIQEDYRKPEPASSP
# [18] = target: T11, cynomolgus monkey CD27 on the cell …; assay: flow cytometry on T cells in cynomolgus monkey PBMC (endogenous CD27), PE-labeled goat anti-human IgG, median MFI PE
# [19] = target: T12, IgG1-CD27-A-P329R-E345R-LHalo (HaloTag NanoBret 618 ligand bound to the HaloTag); assay: NanoBRET proximity assay between NanoLuc- and HaloTag-tagged antibodies (5 µg/mL each) bound on cells, corrected BRET (mBU)
# T12 construct: Light chain fused to HaloTag; heavy chain as for m63
# T12 sequence (heavy, as listed by the source): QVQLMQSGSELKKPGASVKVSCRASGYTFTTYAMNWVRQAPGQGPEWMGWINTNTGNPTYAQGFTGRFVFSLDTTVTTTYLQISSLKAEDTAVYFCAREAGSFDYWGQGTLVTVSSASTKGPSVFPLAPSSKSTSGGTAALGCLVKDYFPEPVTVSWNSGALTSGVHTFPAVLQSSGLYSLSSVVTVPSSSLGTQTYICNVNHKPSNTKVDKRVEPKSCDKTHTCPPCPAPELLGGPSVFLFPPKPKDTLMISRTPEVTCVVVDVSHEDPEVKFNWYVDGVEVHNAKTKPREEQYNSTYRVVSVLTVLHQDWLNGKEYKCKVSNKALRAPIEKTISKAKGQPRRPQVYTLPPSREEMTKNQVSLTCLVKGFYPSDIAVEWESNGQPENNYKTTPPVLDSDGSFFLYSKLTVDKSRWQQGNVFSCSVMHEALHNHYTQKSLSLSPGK
binder,measurement,setting,value
B1,binding result,[1],binds
same,binding result,[2],binds
same,binding result,[3],binds
same,binding result,[4],binds
same,EC50 (read off the curve),[5],~0.06 µM
same,binding result,[6],binds
B2,binding result,[7],no binding (tested: 30 µg/mL)
same,binding result,[8],no binding (tested: 10 µg/ml)
B3,binding result,[9],no binding (tested: 10 µg/mL)
same,binding result,[10],no binding (tested: 10 µg/mL)
same,binding result,[11],no binding (tested: 10 µg/mL)
same,binding result,[12],no binding (tested: 10 µg/mL)
same,binding result,[13],no binding (tested: 10 µg/mL)
B4,EC50 (read off the curve),[14],~0.2 mg/L
same,EC50 (read off the curve),[15],~0.1 mg/L
same,EC50 (read off the curve),[16],~0.04 mg/L
same,EC50 (read off the curve),[17],~0.06 mg/L
same,EC50 (read off the curve),[18],~0.03 mg/L
B5,binding result,[19],binds
